Source: patent US20240093255A1, “BIOSYNTHETIC PRODUCTION OF 2-FUCOSYLLACTOSE” (Conagen Inc., priority 2020, published 2024)
Residue numbers refer to the chain shown, from its start.

B1: FutC5: α-1,2-fucosyltransferase candidate from Lachnospiraceae bacterium XBB2008, SEQ ID NO: 29; parent of ASR12 (protein)
chain: MIILQMSGGLGNQMFQYALYLKLKKLGREVKFDDETSYELDNARPVQLAVFDITYPRATRQEVTDMRDSSPAWKDRIRRKLKGRNLKQYTEANYSYDEHVFELDDTYLRGYFQTEKYFSDIRDEIYKTYTMRKDLITEQTTQYEEDILSHENSVSIHIRRGDYMTIEGGEIYAGICTDEFYDSAIKYVLERHPDAVFYLFTNDSSWAEYFCNIHSDVNIHVVEGNTEYFGYLDMYLMSRCKHHIVANSSFSWWGAWLGRDADGMVIAPDPWFNCSNCADIHTDRMILIDPKGELLTDDKGVRNESEE
modifications: Lachnospiraceae bacterium XBB2008
notes: parent of ASR12
B2: FutC2: α-1,2-fucosyltransferase candidate from Pisciglobus halotolerans, SEQ ID NO: 23 (protein)
chain: MIYTRITSGLGNQMFQYAIAYSYSRKYDMPLILDLTNFKISKKRTYQLDKFKLNDYKKITFKNAPLEIKIFWLVEVLNMISIKLRKKEMKRKNNYNLKSTQFICEKYKEKYNINFDLTNKSLYLSGFWQSPLYFENYRDELIQQFSPNYVLSNKLKEYETKIINCRSVSVHIRRGDFLQHGLFKDVDYQKKAITYLEKKLDNPIFFFFSDDIEWTKEKFKNQKNCFFVSSDSKNSGIEEMYLMSKCENNIIANSTFSWWGAWLNQNQNKIVIAPSTGFGNKDILPKSWYTI
modifications: Pisciglobus halotolerans
B3: FutC13: α-1,2-fucosyltransferase candidate from Candidatus Brocadia sapporoensis, SEQ ID NO: 45 (protein)
chain: MQLKRWPQLKPTDAAVFGSGKQTIMIIVKLMGGLGNQMFQYAAGRRLAEKLGVKLKLDIEMFKDNTLRKYELGAFNIQECFAAVEEIERLTVVKRGIVEKALDRVFKRPIRRPGGYVAEKYFVFDPSILQLPDQVYLDGYWQSEKYFAEIETIIREEFTIKYPQTDKNKVLSDSIKSGNSVTVHVRRGDYVNNPETNSLHGVCGIDYYQRCIDFIITKIANPHFFFFSDDPEWVKNNLKIKYESTVVEHNGAEKCYEDLRLLSQGKYHIIANSTFSWWGAWLNKNPEKMVVAPEKWFKKEDVNTKGFIPEDWIRL
modifications: Candidatus Brocadia sapporoensis
B4: FutC 18: α-1,2-fucosyltransferase candidate from Rhizobiales bacterium, SEQ ID NO: 55 (protein, listed as Rhizobiales bacterium)
chain: MIVTRIVGGLGNQMFQYAVGRALSAKTGQEFKLDLSEMDRYKVHALQLDQFNIKGVRAGRHEIPFRPRKSFFGKILTALKNRNRIPQVFETTPSFDPSVLQRKGSCYLSGYWQSEKYFSDCSELIRADFSLKGPMSDERQAVLSQIRDAEAPVSVHVRRGDYVTNTTANSIHGTCEPEWYRQAMRKISDRTGDPTFFVFSDDPMWARSNLPTYEKMVFVEPRADGKDAEDMHLMSSCQSHIIANSTFSWWGAWLNPRQDKRVIAPARWFRAEDRDSTDLVPAQWERL
B5: FutC10: α-1,2-fucosyltransferase candidate from Thermosynechococcus elongatus, SEQ ID NO: 39 (protein, listed as Thermosynechococcus elongatus)
chain: MIIVRLCGGLGNQMFQYAAGLAAAHRIGSEVKFDTHWFDATCLHQGLELRRVFGLELPEPSSKDLRKVLGACVHPAVRRLLSRRLLRALRPKSLVIQPHFHYWTGFEHLTDNVYLEGYWQSERYFSNIADIIRQQFRFVEPLDPHNAALMDEMQSGVSVSLHIRRGDYFNNPQMRRVHGVDLSEYYPAAVATMIEKTNAERFYVFSDDPQWVLEHLKLPVSYTVVDHNRGAASYRDMQLMSACRHHIIANSTFSWWGAWLNPRPDKVVIAPRHWFNVDVFDTRDLYCPEWIVL
B6: At GMD M4: mutant Arabidopsis thaliana GMD targeting the GDP-L-fucose allosteric binding pocket, SEQ ID NO: 79 (protein)
chain: MASENNGSRSDSESITAPKADSTVVEPRKIALITGITGQDGSYLTEFLLGKGYEVHGLIRRSSNFNTQRINHIYIDPHNVNKALMKLHYADLTDASSLRRWIDVIKPDEVYNLAAQSHVAVSFEIPDYTADVVATGALRLLEAVRSHTIDSGRTVKYYQAGSSEMFGSTPPPQSETTPFHPRSPYAASKCAAHWYTVNYREAYGLFACNGILFNHESPRRGENFVTRKITAALGRIKVGLQTKLFLGNLQASRDWGFAGDYVEAMWLMLQQEKPDDYVVATEEGHTVEEFLDVSFGYLGLNWKDYVEIDQRYFRPAEVDNLQGDASKAKEVLGWKPQVGFEKLVKMMVDEDLELAKREKVLVDAGYMDAKQQP
modifications: Arabidopsis thaliana GMD mutant
B7: At GMD M3: mutant Arabidopsis thaliana GMD targeting the GDP-L-fucose allosteric binding pocket, SEQ ID NO: 77 (protein)
chain: B6 chain with K228A, A231R
modifications: Arabidopsis thaliana GMD mutant
B8: At GMD M2: mutant Arabidopsis thaliana GMD targeting the GDP-L-fucose allosteric binding pocket, SEQ ID NO: 75 (protein)
chain: B6 chain with H78A, A231R
modifications: Arabidopsis thaliana GMD mutant
B9: Ec WT: GDP-mannose-4,6-dehydratase from Escherichia coli, wild type, SEQ ID NO: 11 (protein, listed as Escherichia coli)
chain: MSKVALITGVTGQDGSYLAEFLLEKGYEVHGIKRRASSFNTERVDHIYQDPHTCNPKFHLHYGDLSDTSNLTRILREVQPDEVYNLGAMSHVAVSFESPEYTADVDAMGTLRLLEAIRFLGLEKKTRFYQASTSELYGLVQEIPQKETTPFYPRSPYAVAKLYAYWITVNYRESYGMYACNGILFNHESPRRGETFVTRKITRAIANIAQGLESCLYLGNMDSLRDWGHAKDYVKMQWMMLQQEQPEDFVIATGVQYSVRQFVEMAAAQLGIKLRFEGTGVEEKGIVVSVTGHDAPGVKPGDVIIAVDPRYFRPAEVETLLGDPTKAHEKLGWKPEITLREMVSEMVANDLEAAKKHSLLKSHGYDVAIALES
B10: Hs GMD wild type: GDP-mannose-4,6-dehydratase from Homo sapiens, wild type, SEQ ID NO: 9 (protein, listed as Homo sapiens)
chain: MRNVALITGITGQDGSYLAEFLLEKGYEVHGIVRRSSSFNTGRIEHLYKNPQAHIEGNMKLHYGDLTDSTCLVKIINEVKPTEIYNLGAQSHVKISFDLAEYTADVDGVGTLRLLDAVKTCGLINSVKFYQASTSELYGKVQEIPQKETTPFYPRSPYGAAKLYAYWIVVNFREAYNLFAVNGILFNHESPRRGANFVTRKISRSVAKIYLGQLECFSLGNLDAKRDWGHAKDYVEAMWLMLQNDEPEDFVIATGEVHSVREFVEKSFLHIGKTIVWEGKNENEVGRCKETGKVHVTVDLKYYRPTEVDFLQGDCTKAKQKLNWKPRVAFDELVREMVHADVELMRTNPNA
B11: Hs GMD M2: mutant human GMD targeting the GDP-L-fucose allosteric binding pocket, SEQ ID NO: 81 (protein)
chain: B10 chain with H54A
modifications: Homo sapiens GMD mutant
B12: Hs GMD M3: mutant human GMD targeting the GDP-L-fucose allosteric binding pocket, SEQ ID NO: 83 (protein)
chain: B10 chain with K201A
modifications: Homo sapiens GMD mutant
B13: Hs GMD M4: mutant human GMD targeting the GDP-L-fucose allosteric binding pocket, SEQ ID NO: 85 (protein)
chain: B10 chain with R204A
modifications: Homo sapiens GMD mutant

experiment: FutC candidate activity in vitro using the de novo synthesis pathway (2′-FL by HPLC); type: biochemical; conditions: 0.2 mg/mL fucosyltransferase, 1 mM GDP-mannose, 80 mM lactose, room temperature, 16 hours
Protocol: The final step in the novel path to 2′-FL requires an α-1,2-fucosyltransferase. Various FutC candidates were screened for soluble expression in E. coli and fucosyltransferase activity. The candidate enzymes show different solubilities and enzymatic activity for 2′-FL synthesis. For the candidates that have highly soluble expression, their activity was tested in vitro using the de novo synthesis pathway. The reaction conditions were: 50 mM Tris-HCl pH 8.0, 2 mM NADPH, 0.1 mM NADP^+, 1 mM GDP-mannose, 80 mM lactose, 0.9 mg/mL Ec Gmd (SEQ 11), 0.2 mg/mL Ec WcaG (SEQ ID NO: 7) and 0.2 mg/mL of the fucosyltransferase candidates. The reactions were incubated at room temperature for 16 hours. The reactions were quenched by heating at 99° C. for 10 minutes, and then analyzed by HPLC.

Molecule | α-1,2-fucosyltransferase activity for 2′-FL production
B1 | have α-1,2-fucosyltransferase activity for 2′-FL production
B2 | have α-1,2-fucosyltransferase activity for 2′-FL production
B3 | have α-1,2-fucosyltransferase activity for 2′-FL production
B4 | have α-1,2-fucosyltransferase activity for 2′-FL production
B5 | have α-1,2-fucosyltransferase activity for 2′-FL production

experiment: GDP-L-fucose inhibition assay of GMD enzymes (GDP-4-keto-6-deoxymannose detection); type: biochemical; conditions: 350 μM GDP-L-fucose; 1 mM GDP-mannose, 0.5 mg/mL GMD
Protocol: To test for inhibition, the mutants were expressed and purified as described in Example 7, and assayed at a range of GDP-L-fucose concentrations. The assay conditions were as follows: 50 mM Tris pH 7.5, 1 mM GDP-mannose, 0.5 mM NADP^+, 0.5 mg/mL dehydratase (GMD) enzyme, and 0 μM, 70 μM or 350 μM GDP-L-fucose. The reactions were quenched at 99° C. for 10 minutes, and the enzymes' respective activities were analyzed using the nucleotide sugar LC-MS method by GDP-4-keto-6-deoxymannose detection.

Molecule | retained activity | decrease in activity [%]
B6 | 100% | –
B7 | 50% | –
B8 | 40% | –
B9 | – | 80
B10 | less than 5% | –
B11 | 80% | –
B12 | 100% | –
B13 | 100% | –
